Measurements as given in patent publication US12209122.

Molecular target: the two scFvs (16-22-H05-sc02 and 16-22-H05-sc04)
Experiment: competition ELISA, coated scFv, biotinylated TNFα, unlabeled TNFβ against unlabeled TNFα

B1: recombinant human TNFβ (Peprotech, Cat. No. 300-01B) (ligand, UniProt P01374 35-205, looked up)
chain: LPGVGLTPSAAQTARQHPKMHLAHSTLKPAAHLIGDPSKQNSLLWRANTDRAFLQDGFSLSNNSLLVPTSGIYFVYSQVVFSGKAYSPKATSSPLYLAHEVQLFSSQYPFHVPLLSSQKMVYPGLQEPWLHSMYHGAAFQLTQGDQLSTHTDGIPHLVLSPSTVFFGAFAL
selectivity for binding to TNFα over TNFβ (fold): > 20000 fold
